The values below come from the supplement of paper PMC9112550, “Optimization of the antimicrobial peptide Bac7 by deep mutational scanning” (BMC Biology, 2022).
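Also: peptides expressed intracellularly from a pBAD plasmid library in pooled LB shake-flask culture, induced with 0.3% L-arabinose, DNA abundance read by NGS, three biological replicates, DESeq2 with apeglm shrinkage.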

The data set deals with Escherichia coli TOP10. The data set is described as follows: shrunken log2 fold change of peptide-encoding DNA abundance (4.5 h post-induction vs induction); higher = less antimicrobial activity (less host growth inhibition). The note with it: time post-induction: 4.5 h; library: site-saturation at positions 5, 18, 19, 20.
In the case of RRIRVRPPRLPRPRPRPDPNPRP, the “shrunken log2 fold change” value was -0.231.

Take RRIRGRPPRLPRPRPRPDMEPRP: the “shrunken log2 fold change” value was 0.864. As to RRIRRRPPRLPRPRPRPDRSPRP, the “shrunken log2 fold change” value is -0.0169. As for RRIRTRPPRLPRPRPRPDIHPRP, the figure is -0.357.

For RRIRDRPPRLPRPRPRPSIIPRP, the “shrunken log2 fold change” value was -0.266. RRIRDRPPRLPRPRPRPHLLPRP: the “shrunken log2 fold change” value amounted to 0.0253. As for RRIRYRPPRLPRPRPRPRFGPRP, the figure is 0.345; as for RRIRRRPPRLPRPRPRPKITPRP, -0.226; as for RRIRFRPPRLPRPRPRPDLHPRP, -0.274. For RRIRARPPRLPRPRPRPPAGPRP, the “shrunken log2 fold change” value came to 0.883. As to RRIRYRPPRLPRPRPRPGDVPRP, the “shrunken log2 fold change” value was -0.484. With RRIRFRPPRLPRPRPRPMVLPRP, the “shrunken log2 fold change” value was -0.0723. For the sequence RRIRYRPPRLPRPRPRPKKTPRP, the “shrunken log2 fold change” value was -0.0419. As for RRIRDRPPRLPRPRPRPASNPRP, the “shrunken log2 fold change” value was -0.15. The result for RRIRGRPPRLPRPRPRPPLDPRP reads 0.989; that for RRIRGRPPRLPRPRPRPEGRPRP, 1.39. As for RRIRQRPPRLPRPRPRPWASPRP, the figure is -0.017; as for RRIRERPPRLPRPRPRPTDMPRP, -0.375; as for RRIRTRPPRLPRPRPRPSPVPRP, 0.0854.

For RRIRHRPPRLPRPRPRPPISPRP, the “shrunken log2 fold change” value is -0.378. The result for RRIRWRPPRLPRPRPRPDMCPRP reads 0.262; that for RRIRHRPPRLPRPRPRPFYNPRP, -0.632; that for RRIRERPPRLPRPRPRPSAYPRP, -0.354. On to RRIRFRPPRLPRPRPRPYQAPRP, for which the “shrunken log2 fold change” value was -0.303. As to RRIRARPPRLPRPRPRPVFFPRP, the “shrunken log2 fold change” value turned out to be 0.448. Take RRIRSRPPRLPRPRPRPQSVPRP: the “shrunken log2 fold change” value was -0.138. Regarding RRIRWRPPRLPRPRPRPRAAPRP, the “shrunken log2 fold change” value was 1.04. With RRIRARPPRLPRPRPRPIRQPRP, the “shrunken log2 fold change” value is -0.00194. For RRIRWRPPRLPRPRPRPSKCPRP, the “shrunken log2 fold change” value was -0.00209.

Turning to RRIRPRPPRLPRPRPRPERFPRP, the “shrunken log2 fold change” value was -0.0264. As for RRIRMRPPRLPRPRPRPIDSPRP, the “shrunken log2 fold change” value was 0.165. As for RRIRWRPPRLPRPRPRPDMYPRP, the figure is -0.389; as for RRIRRRPPRLPRPRPRPDTGPRP, 0.0107; as for RRIRIRPPRLPRPRPRPRTRPRP, 0.0709. Consider RRIRFRPPRLPRPRPRPTYIPRP, for which the “shrunken log2 fold change” value was -0.434. For the sequence RRIRRRPPRLPRPRPRPHERPRP, the “shrunken log2 fold change” value was determined as 0.225.

Consider RRIRDRPPRLPRPRPRPFDQPRP, for which the “shrunken log2 fold change” value was -0.115.

Turning to RRIRARPPRLPRPRPRPWSKPRP, the “shrunken log2 fold change” value is -0.27.

For the sequence RRIRMRPPRLPRPRPRPFKYPRP, the “shrunken log2 fold change” value was -0.164. Turning to RRIRGRPPRLPRPRPRPDSSPRP, the “shrunken log2 fold change” value turned out to be 0.217. On to RRIRCRPPRLPRPRPRPGCQPRP, for which the “shrunken log2 fold change” value is 0.00667. As for RRIRERPPRLPRPRPRPRCSPRP, the figure is 0.0243; as for RRIRWRPPRLPRPRPRPSRPPRP, 0.402. The result for RRIRVRPPRLPRPRPRPGRKPRP reads -0.0493; that for RRIRQRPPRLPRPRPRPNCCPRP, 0.0381. Consider RRIRTRPPRLPRPRPRPKRRPRP, for which the “shrunken log2 fold change” value was 0.513. For RRIRNRPPRLPRPRPRPMPFPRP, the “shrunken log2 fold change” value is 0.00489. As for RRIRPRPPRLPRPRPRPACQPRP, the figure is 0.22; as for RRIRRRPPRLPRPRPRPRVVPRP, 0.215.

In the case of RRIRQRPPRLPRPRPRPGKGPRP, the “shrunken log2 fold change” value is 0.00842. With RRIRTRPPRLPRPRPRPETCPRP, the “shrunken log2 fold change” value is -0.0408. As for RRIRTRPPRLPRPRPRPFYWPRP, the figure is -0.348.

RRIRERPPRLPRPRPRPGQFPRP: the “shrunken log2 fold change” value was -0.295. Consider RRIRRRPPRLPRPRPRPNHAPRP, for which the “shrunken log2 fold change” value was determined as 0.345. As to RRIRRRPPRLPRPRPRPFFKPRP, the “shrunken log2 fold change” value was -0.177.

On to RRIRPRPPRLPRPRPRPMMEPRP, for which the “shrunken log2 fold change” value came to 0.0824. Turning to RRIRIRPPRLPRPRPRPGNIPRP, the “shrunken log2 fold change” value is -0.479.

For the sequence RRIRNRPPRLPRPRPRPHHWPRP, the “shrunken log2 fold change” value is -0.0959.

Consider RRIRDRPPRLPRPRPRPTIYPRP, for which the “shrunken log2 fold change” value amounted to 0.0468. The result for RRIRKRPPRLPRPRPRPFVMPRP reads 0.261; that for RRIRNRPPRLPRPRPRPDHLPRP, -0.0163; that for RRIRPRPPRLPRPRPRPALHPRP, 0.681. As to RRIRLRPPRLPRPRPRPKIWPRP, the “shrunken log2 fold change” value is -0.0443. Take RRIRNRPPRLPRPRPRPSPPPRP: the “shrunken log2 fold change” value was -0.0562. For the sequence RRIRKRPPRLPRPRPRPNQYPRP, the “shrunken log2 fold change” value is -0.0702. For RRIRTRPPRLPRPRPRPGTHPRP, the “shrunken log2 fold change” value was -0.0792. Consider RRIRNRPPRLPRPRPRPQIYPRP, for which the “shrunken log2 fold change” value is -0.0394. With RRIRWRPPRLPRPRPRPMSGPRP, the “shrunken log2 fold change” value was 0.118. Turning to RRIRDRPPRLPRPRPRPDPLPRP, the “shrunken log2 fold change” value is 0.64.

In the case of RRIRVRPPRLPRPRPRPLPRPRP, the “shrunken log2 fold change” value came to 0.642.

Consider RRIRSRPPRLPRPRPRPFQVPRP, for which the “shrunken log2 fold change” value is -0.0848. Turning to RRIRYRPPRLPRPRPRPKLWPRP, the “shrunken log2 fold change” value was 0.64. The result for RRIRARPPRLPRPRPRPKDHPRP reads 0.175.

As for RRIRVRPPRLPRPRPRPADCPRP, the “shrunken log2 fold change” value was 0.0869.

Consider RRIRERPPRLPRPRPRPDAIPRP, for which the “shrunken log2 fold change” value was -0.166. As for RRIRTRPPRLPRPRPRPIHRPRP, the figure is -0.00127; as for RRIRIRPPRLPRPRPRPNIKPRP, -1.05; as for RRIRARPPRLPRPRPRPTTQPRP, 0.584.

For the sequence RRIRCRPPRLPRPRPRPAWPPRP, the “shrunken log2 fold change” value was 0.895. The result for RRIRYRPPRLPRPRPRPMPAPRP reads 0.348. Consider RRIRARPPRLPRPRPRPITIPRP, for which the “shrunken log2 fold change” value was 0.222.

With RRIRARPPRLPRPRPRPECIPRP, the “shrunken log2 fold change” value turned out to be 0.781. The result for RRIRRRPPRLPRPRPRPHKCPRP reads -0.346.

As for RRIRRRPPRLPRPRPRPNQEPRP, the “shrunken log2 fold change” value is -0.0479. For the sequence RRIRGRPPRLPRPRPRPEFNPRP, the “shrunken log2 fold change” value came to 0.669. Consider RRIRRRPPRLPRPRPRPHSQPRP, for which the “shrunken log2 fold change” value was 0.0866.

Consider RRIRHRPPRLPRPRPRPSNAPRP, for which the “shrunken log2 fold change” value was -0.38. As for RRIRSRPPRLPRPRPRPAWSPRP, the figure is 0.58; as for RRIRARPPRLPRPRPRPNCFPRP, 0.0761. As to RRIRVRPPRLPRPRPRPSYKPRP, the “shrunken log2 fold change” value is -0.581. For the sequence RRIRLRPPRLPRPRPRPVSSPRP, the “shrunken log2 fold change” value amounted to 0.242. For the sequence RRIRLRPPRLPRPRPRPADRPRP, the “shrunken log2 fold change” value was -0.0121. Turning to RRIRARPPRLPRPRPRPDFCPRP, the “shrunken log2 fold change” value came out at 0.168. As for RRIRFRPPRLPRPRPRPWQTPRP, the figure is -0.0222; as for RRIRCRPPRLPRPRPRPARLPRP, 0.395; as for RRIRLRPPRLPRPRPRPQVHPRP, -0.184. With RRIRTRPPRLPRPRPRPKLMPRP, the “shrunken log2 fold change” value was -0.102. As to RRIRWRPPRLPRPRPRPHMDPRP, the “shrunken log2 fold change” value is -0.18.

For RRIRARPPRLPRPRPRPSGFPRP, the “shrunken log2 fold change” value worked out at 0.0172. In the case of RRIRSRPPRLPRPRPRPIDLPRP, the “shrunken log2 fold change” value was -0.546. With RRIRPRPPRLPRPRPRPDCYPRP, the “shrunken log2 fold change” value was -0.0771.

Turning to RRIRARPPRLPRPRPRPSKHPRP, the “shrunken log2 fold change” value was -0.11. As for RRIRSRPPRLPRPRPRPQSRPRP, the figure is 0.0912; as for RRIRIRPPRLPRPRPRPKPVPRP, 0.101. Consider RRIRVRPPRLPRPRPRPTWGPRP, for which the “shrunken log2 fold change” value amounted to 0.436. In the case of RRIRNRPPRLPRPRPRPAMNPRP, the “shrunken log2 fold change” value was -0.000576. As for RRIRRRPPRLPRPRPRPIILPRP, the figure is -0.406; as for RRIRIRPPRLPRPRPRPDQQPRP, 0.062.

RRIRGRPPRLPRPRPRPEFFPRP: the “shrunken log2 fold change” value is 0.891. As for RRIRTRPPRLPRPRPRPPLAPRP, the figure is 0.65. Turning to RRIRMRPPRLPRPRPRPKFFPRP, the “shrunken log2 fold change” value is 0.0606.

On to RRIRSRPPRLPRPRPRPVLLPRP, for which the “shrunken log2 fold change” value was -0.315. RRIRLRPPRLPRPRPRPYTHPRP: the “shrunken log2 fold change” value was -0.925. As for RRIRGRPPRLPRPRPRPPHSPRP, the figure is 0.568. In the case of RRIRMRPPRLPRPRPRPKGYPRP, the “shrunken log2 fold change” value was -0.0135. The result for RRIRIRPPRLPRPRPRPKPGPRP reads 0.53; that for RRIRARPPRLPRPRPRPLFQPRP, 0.0426; that for RRIRERPPRLPRPRPRPMDCPRP, -0.149. For the sequence RRIRLRPPRLPRPRPRPRFDPRP, the “shrunken log2 fold change” value is -0.053. Turning to RRIRCRPPRLPRPRPRPTNGPRP, the “shrunken log2 fold change” value is -0.0378. As for RRIRTRPPRLPRPRPRPKACPRP, the figure is 0.0653; as for RRIRPRPPRLPRPRPRPFDLPRP, -0.736. With RRIRFRPPRLPRPRPRPCEHPRP, the “shrunken log2 fold change” value was -0.00783.

In the case of RRIRCRPPRLPRPRPRPFEHPRP, the “shrunken log2 fold change” value is -0.792.

Consider RRIRARPPRLPRPRPRPAQWPRP, for which the “shrunken log2 fold change” value was 0.252.
